Laboratory results: the supplement of paper PMC9170038

Test system: MS2 coat protein
Assay: apparent KD of MS2 coat protein; designed switch direction (-1 OFF switch, 1 ON switch): -1; higher = weaker reporter binding
How it was run: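 Three titration conditions were used: no input, 200 uM small-molecule ligand, and an oligonucleotide input. In each, SNAP-549-labelled MS2 coat protein was raised from 0.7 or 1.5 nM, doubling, to 3 µM over designed RNA switches transcribed on Illumina chips by stalled E. coli RNA polymerase. Curve fits of normalised cluster fluorescence gave values whose per-design median over clusters is the apparent KD.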

[1] = Eterna round: R95, input ligand: microRNA oligo, concentration not stated
[2] = Eterna round: R95, input ligand: FMN 200 uM
[3] = Eterna round: R95, input ligand: none
[4] = input ligand: microRNA oligo, concentration not stated

Sequence | apparent KD of MS2 coat protein [1] | apparent KD of MS2 coat protein (input ligand: FMN 200 uM) | apparent KD of MS2 coat protein (input ligand: none) | apparent KD of MS2 coat protein [2] | apparent KD of MS2 coat protein [3] | apparent KD of MS2 coat protein [4]
UUUUAACAUGAGGAUCACCCAUGUGAGGAUAUCGAAAUUUAUAUUUAUAUUAAUAAUUCGAGAAGGCACAUUUU [JMF 77] (puzzle: Exclusion 1) | 155 nM |  |  |  |  | 
GUCAUCAAACAUGGGAUAAACAUGAGGAUCACCCAUGUUAACAAGUUUUUUGCUCGUCUUAUAAUAAGUUUGAUGAC [Antenna 11 - Jieux - Sensor, turn-off variant 1] (Eterna round: R97, puzzle: Sensor, turn-off variant 1) |  | 12.4 nM | 13.5 nM |  |  | 
ACCAUUUUACGAUAUGUGCACAUGAGGAUCACCCAUGUUCCGAUAAACAUUUGAAGUACAGCAGGCUGCUCGAUCUG [Eternabot (L2) Solution 45] (Eterna round: R97, puzzle: Sensor, turn-off variant 1) |  | 94.2 nM | 87.4 nM |  |  | 
ACGUGAUAUCUGUCGGUGGACAUGAGGAUCACCCAUGUAAGCUUUUUGCUUGUCUUAUAACCCGGUGACAGACCUUC [Inxeer] (puzzle: Sensor v3, turn-off variant 1) | 540 nM |  |  | 23.1 nM | 26.5 nM | 
UUGUUACGAUUAGGAUAUUAUAGAUUGAAUAGUAUGAUUUACAUGAGGAUCACCCAUGUUACAUUUAAGAAGGAAUCGAAUUAU [JR_ExcNG2_Sub089] (Eterna round: R96, puzzle: Exclusion NG 2) |  |  |  |  |  | 16.1 nM
GCUGGUCGAGGAUAUACAUGAGGAUCACCCAUGUAGAUCAACCAGCUUCGGCUGGAAUGUAGAAGGCGACCAGC [E3/5-A4] (Eterna round: R97, puzzle: Exclusion 3) |  | 117 nM | 19.5 nM |  |  | 
ACACUGCGAGGAUAUACAUGAGGAUCACCCAUGUGUCGGCAGCCACGGUAGCACUAGUGUAGAAGGCGCAUUAG [EX3 #42] (Eterna round: R97, puzzle: Exclusion 3) |  | 41.1 nM | 28.3 nM |  |  | 
CUAUUACGAGGAUAUGAUUUAAGUAACAUGAGGAUCACCCAUGUUUUUCCGUUGUUAUGUUCAGAAGGCGUAUUAU [JR_E5_Sub023] (puzzle: Exclusion 5) | 35.6 nM |  |  | 86.1 nM | 38.8 nM | 
GAAAAGUGAGGAUAUGCUCGAUCCUGGCACCAAGUGAAGUCACUUGAGGAUCACCCAAGUAGAAGGCACAUAAA [Tiederes] (Eterna round: R97, puzzle: Exclusion 2) |  | 206 nM | 55.3 nM |  |  | 
CAAACGGCUUUAGGAUAUGACUUUUCGUACAUGAGGAUCACCCAUGUCAGGACUGGUGGUGCGAGUCAGAAGGAGAGUCAAGAA [Eternabot solution 30] (Eterna round: R96, puzzle: Exclusion NG 2) |  | 94.3 nM | 176 nM |  |  | 99.2 nM
AUACAACAUGAGGAUCACCCAUGUGAGGAUAUGCGAUAUAUCAUCAUCAUAAUCAUAAGCAGAAGGCACAACAU [Another One] (puzzle: Exclusion 1) | 35.6 nM |  |  | 35.7 nM | 34 nM | 
GCAGCAACUCUAAUCAAUCCAACAUGAGGAUCACCCAUGUCUCAGGAUAUGGUCUGGAUUACAGGCCAGAAGGGAGAAAGCUGC [Eli exng3 - 046] (Eterna round: R96, puzzle: Exclusion NG 3) |  | 9.07 nM | 11.9 nM |  |  | 7.62 nM
AUUAUAAAGUCAGGAUAUCGGUUUAUAAUAUUACGAGAAGGGACAUGAGGAUCACCCAUGUAUUAACACUACUAUGUCAACUAA [1st Attempt] (Eterna round: R96, puzzle: Exclusion NG 1) |  |  |  |  |  | 33.3 nM
AGAGUGCUGCGAGGAUAUACAUGAGGAUCACCCAUGUGGUCCUGUGAGGGAAAACCUCACAGGAUGUAGAAGGCGCAGUACUCA [Mat - Exclusion NG 2 - Mod of JL - D47] (Eterna round: R96, puzzle: Exclusion NG 2) |  | 53.2 nM | 16.3 nM |  |  | 10.9 nM
GCUGGUCGAGGAUAUACAAUCGUGCUUCGGCACGUAAGGUCACAUGAGGAUCACCCAUGUAGAAGGCGACCAGC [E2/2-A2] (Eterna round: R97, puzzle: Exclusion 2) |  | 175 nM | 30.9 nM |  |  | 
GAAAAGCUAGGAUAUACAUGAGGAUCACCCAUGUAAGGUCGCUUCUUAUAUAGGGCAUGUAGAAGGAGCAAAGA [Eneriner] (puzzle: Exclusion 3) | 35.9 nM |  |  | 70.6 nM | 32.1 nM | 
GAAAAGGUAGGAUAUACGAAAAAAAAGGGUAGAAAAAAAUCACAUGAGGAUCACCCAUGUAGAAGGACCAAAAG [salish99_ex2_r3_072] (puzzle: Exclusion 2) | 25 nM |  |  | 62.3 nM | 28.3 nM | 
UACAUGAGGAUCACCCAUGUUUUGUCGUGUUUGGUACCCGUUUAGGAUAUCGUGUUAUUGGACCGCGAGAAGGAGAGUAUCUUU [Excl-NG3-LRO07] (Eterna round: R96, puzzle: Exclusion NG 3) |  | 31.8 nM | 33.3 nM |  |  | 25.3 nM

Sequence | apparent KD of MS2 coat protein [1] | apparent KD of MS2 coat protein (input ligand: FMN 200 uM) | apparent KD of MS2 coat protein (input ligand: none) | apparent KD of MS2 coat protein [2] | apparent KD of MS2 coat protein [3] | apparent KD of MS2 coat protein [4]
GUAAAGUGAGGAUAUGGUAAAGUAAUUAUUUAGUAAUUAAUCCAGAAGGCACAUGAGGAUCACCCAUGUAAAUG [Mat - Exclusion 4 - D96] (puzzle: Exclusion 4) | 26.1 nM |  |  | 44.6 nM | 28.7 nM | 
AUAAUUAAUGCAGGAUAUCAGCACGAUUAGUGCUGAGAAGGGCACAUGAGGAUCACCCAUGUGAUCAAUUAAUAUUAAUAUUAU [ENG1/11-D1] (Eterna round: R96, puzzle: Exclusion NG 1) |  | 279 nM | 61.6 nM |  |  | 53 nM
UCGCUGCGAGGAUAUACGUUUGCGCGUUUUCGUUUGCGCGUACAUGAGGAUCACCCAUGUAGAAGGCGCGCUGC [Apr-15 SS2-10] (puzzle: Exclusion 2) | 13.3 nM |  |  |  |  | 
ACCUCACAUGAGGAUCACCCAUGUUAGGAUAUCUCGGCGCCCUGCAGGCAGUGGCACCAGAGAAGGAACGUGCA [Xeindiisti] (puzzle: Exclusion 1) | 20.4 nM |  |  |  |  | 
GUGUCGUAAGGAUAUUUACCUGAGCCACUAGAGCGCUUGGAGAAGAAGGUACAUGAGGAUCACCCAUGUGGUGA [Eternabot (L2) Solution 61] (Eterna round: R97, puzzle: Exclusion 4) |  | 1430 nM | 2570 nM |  |  | 
CGGUGACGGGUGAGGAUAUCGUGUUCGAAAGAACGUGAGAAGGCACAUGAGGAUCACCCAUGUGAUCCUCAUCG [Omei Ex4B A31] (Eterna round: R97, puzzle: Brourd's mod of Exclusion 4) |  | 412 nM | 56.1 nM |  |  | 
GCAUGGAGACAGGAUAUCCGCGCGAACAAAAUAGGAGAAGGGUCUACAUGAGGAUCACCCAUGUGACGGUAUCC [Aedenqu] (puzzle: Exclusion 6) | 21.7 nM |  |  | 62.2 nM | 27.2 nM | 
CUGAUGUGAGGAUAUGUGAUCUGCCUUCUAUGUAGAUGAUCACAGAAGGCACAUGAGGAUCACCCAUGUAGAUC [Ex4 - 3 - 26] (Eterna round: R96, puzzle: Exclusion 4) |  | 129 nM | 99.4 nM |  |  | 57.3 nM
CCUUUGUCAGGAUAUCAGAAAACGCUCGUAGGGAGCGCAAAUGAGAAGGGACAUGAGGAUCACCCAUGUAAAGA [Edmareen] (puzzle: Exclusion 4) | 45.1 nM |  |  | 219 nM | 60.3 nM | 
CUGGUCCGAGGAUAUAUUAAGUGAUACAUGAGGAUCACCCAUGUUAUUUGAUGGAUGUAAAUAGAAGGCGGACUAG [JL-ex5-3.17] (puzzle: Exclusion 5) | 38.9 nM |  |  | 37.1 nM | 45.2 nM | 
AGGUAACAUGAGGAUCACCCAUGUCAGGAUAUCAUAAAGAUUAGAUUAGAGAAGAGGUUGAGAAGGGACUAUAU [Excluse me! 17- Jieux - Exclusion 1] (puzzle: Exclusion 1) | 41.9 nM |  |  |  |  | 
UCAGUUUUGCGAGGAUAUCGACCAUUCCUCUUUACAUGAGGAUCACCCAUGUGCUUAUCCUACAACGAGAAGGCGCUCAUACUC [JR_ExcNG2_Sub065] (Eterna round: R96, puzzle: Exclusion NG 2) |  | 543 nM | 574 nM |  |  | 580 nM
GGUGCGUAUGUGAGGAUAUGCUGGUCCUUGGAUCGGCAGAAGGCACAUGAGGAUCACCCAUGUGGUGUCGUACU [salish99_Bmod_ex4_082] (puzzle: Brourd's mod of Exclusion 4) | 173 nM |  |  |  |  | 
UUUUAACAUGAGGAUCACCCAUGUGAGGAUAUCGAAAUUUAUAUUAAUAUUAAUAAAACGAGAAGGCACAUUUU [JMF 4] (puzzle: Exclusion 1) | 75.1 nM |  |  |  |  | 
CAGUACUGAGGAUAUACAUGAGGAUCACCCAUGUGUUCCAGCUAGGAGACUAGCAAAUGUAGAAGGCAGUACUG [jl-ex3-4.02 salish99 mod] (Eterna round: R97, puzzle: Exclusion 3) |  | 615 nM | 406 nM |  |  | 
CGGGCCGGCCUUCCGGCCGGCCCGACAUGAGGAUCACCCAUGUAGGAUAUCCCGGCUGCCGGCCGGGAGAAGGGCGUGCGUCCU [-50.4, -49.5 kcal, 14% A] (Eterna round: R96, puzzle: Exclusion NG 3) |  | 101 nM | 91.6 nM |  |  | 53.6 nM
UUUUAAAAGCUGAGAUCCUACAUGAGGAUCACCCAUGUGGUCCGGAAAAUUUUGUCACCGGAUUUUGCUCGUCUUGU [salish99_S_TOV1_R5_103] (Eterna round: R97, puzzle: Sensor, turn-off variant 1) |  | 102 nM | 114 nM |  |  | 
